According to publication PMC3048092:

Target: FITC-BAD pSAHB-2
Assay: cross-linking

BCL-XLΔC (domain or fragment)
crosslinking conversion at 2 hours of UV exposure: 35%
